Laboratory results reported in publication PMC13227277, “Targeting CIRP and IL-6R-mediated microglial inflammation to improve outcomes in intracerebral hemorrhage” (Journal of Advanced Research, 2025).

Legend:
[1] = biological target: T1, recombinant human IL-6 receptor alpha (IL-6Rα) (human, UniProt P08887 20-365); assay: SPR; human IL-6Rα immobilised on a CM5 chip; human CIRBP or TCC as analyte; settings: both partners purified
T1 construct: Interleukin-6 receptor subunit alpha, human; UniProtKB P08887 is printed for the docking; also called rhIL-6Rα; rhIL-6R; source: recombinant
T1 sequence (looked up): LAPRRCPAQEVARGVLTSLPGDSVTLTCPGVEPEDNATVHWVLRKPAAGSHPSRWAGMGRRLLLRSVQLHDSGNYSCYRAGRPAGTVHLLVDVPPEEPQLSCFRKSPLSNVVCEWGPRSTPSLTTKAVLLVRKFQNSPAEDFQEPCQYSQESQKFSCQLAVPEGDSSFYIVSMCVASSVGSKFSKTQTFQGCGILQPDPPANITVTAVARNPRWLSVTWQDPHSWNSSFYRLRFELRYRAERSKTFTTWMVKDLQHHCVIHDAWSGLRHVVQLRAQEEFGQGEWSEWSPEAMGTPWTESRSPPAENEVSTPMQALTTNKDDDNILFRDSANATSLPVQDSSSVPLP

[2] = system: IL-6R-overexpressing HEK-293 T cells; assay: IL-6R mRNA/protein expression in IL-6R-overexpressing HEK-293 T cells; type: cell-based, human; settings: CIRP 1 μg/mL for 24 h
Method: The overexpression plasmid for IL-6R was constructed by GenScript Biotech using a pcDNA3.1(+)-3xFLAG-P2A-EGFP vector with a broad-spectrum promoter, non-fusion EGFP fluorescence, and Neo (G418) resistance. The final construct was pcDNA3.1(+)-IL6r-3xFLAG-P2A-EGFP, and a control plasmid (pcDNA3.1(+)-3xFLAG-P2A-EGFP) was also generated.
HEK 293 T cells were cultured in six-well plates to 70–80 % confluence. Cells were divided into control and test groups. For transfection, solution A (plasmid diluted in Opti-MEM) and solution B (Lipofectamine 2000, Life Technologies, USA, diluted in Opti-MEM) were mixed at a 1:2 plasmid-to-lipofectamine ratio. After 6 h, the medium was replaced with DMEM, and GFP fluorescence was observed 24–48 h post-transfection to assess efficiency. Cells were divided into PBS, IL-6R, and CIRP (1 μg/mL for 24 h) groups for further analysis.
RNA was extracted using TRIzol reagent (Invitrogen, 210901). RNA was reverse transcribed into cDNA using Novagen's R323-01 100RXN. qRT-PCR was performed to determine the mRNA levels of Nos2, Tnf, Rela, Mcr1, Arg1, Cirbp, […] and Il6. […]
Brain tissue adjacent to the hemorrhagic striatum was homogenized in lysis buffer with protease inhibitors. […] The supernatant was collected for protein quantification using the BCA method. […]

[3] = biological target: T1, recombinant human IL-6 receptor alpha …; assay: SPR; competitive inhibition: IL-6Rα on a CM5 chip saturated with TCC (100 times its affinity constant; 1.5 μg/mL), then CIRBP as analyte; settings: both partners purified

- Kd [1]: 4.27 nM
- KD in the presence of the competitor TCC (1.5 μg/mL) [3]: 17.7 nM
B1: recombinant human CIRP (cold-inducible RNA-binding protein) (natural protein, UniProt Q14011 1-172, looked up)
chain: MASDEGKLFVGGLSFDTNEQSLEQVFSKYGQISEVVVVKDRETQRSRGFGFVTFENIDDAKDAMMAMNGKSVDGRQIRVDQAGKSSDNRSRGYRGGSAGGRGFFRGGRGRGRGFSRGGGDRGYGGNRFESRSGGYGGSRDYYSSRSQSGGYSDRSSGGSYRDSYDSYATHNE
notes: UniProtKB Q14011 is printed for the docking; also called rhCIRP; human CIRBP; source: recombinant
- Il6 mRNA expression ([2]; qRT-PCR n = 3–6): did not show a significant change between groups
- Il6ra mRNA and protein expression ([2]; qRT-PCR n = 3–6, western blot n = 9): significant upregulation of Il6ra mRNA and protein expression
